1 protein from paper PMC11875312, “Hidden Structural States of Proteins Revealed by Conformer Selection with AlphaFold-NMR” (Research Square, 2025) can be followed below.

This data set concerns the molecule itself. As to the kind of experiment: solution NMR structure (AlphaFold-NMR: AFsample models selected against NOESY and chemical shift data); homodimer models of CDK2AP1(61-115) scored against NOESY peak lists (including 3D X-filtered NOESY on a mixed sample of 50% [15N,13C]-labeled and 50% unlabeled CDK2AP1, recorded earlier, ref. 47; 124 further peaks picked here) and chemical shifts (BMRB 16808); validated by NOESY Double Recall.

B1: Cyclin-Dependent Kinase 2-Associated Protein 1 (residues 61-115) (domain or fragment, human, UniProt O14519 61-115, looked up)
chain: SKYAELLAIIEELGKEIRPTYAGSKSAMERLKRGIIHARGLVRECLAETERNARS
notes: Cyclin-Dependent Kinase 2-Associated Protein 1 (CDK2AP1), human, residues 61-115, the homodimeric four-helix bundle; The methods mention newly assigned H58 - K62 resonances, so the sample may carry residues (perhaps of a tag) before residue 61; also called CDK2AP1; CDK2AP1_(61–115)
B1: the binding result is given as “binds”.
